This assay has as its target 40 non-kinase enzyme assays, including phosphatases and proteases. The assay can be described thus: cell-based or functional assay. The following applies: scale: % inhibition of activity at 100 µM MMI-0100.

No end group written: not given here.

B1: MMI-0100 peptide (…; SEQ ID NO: 1) (peptide)
peptide: YARAAARQARAKALARQLGVAA
modifications: also: acetate salt
On to B1, for which the inhibition of activity in enzyme assays in the presence and absence of 100 µM MMI-0100 is less than 50.

The values are drawn from patent US20150299264A1.
